The assay has as its target cation independent mannose-6-phosphate receptor (CIMPR). Briefly: immobilized CIMPR affinity column, elution with free M6P.

This is an account of results in patent US20190358302A1.

Take “Fabrazyme (agalsidase beta) (from UniProt P06280 32-429) (enzyme)”: the % bound to CIMPR column was determined as 90%.
